{"source": "patent US20250179176A1", "about": "“ANTI-TIGIT ANTIBODIES AND USES OF THE SAME” (ARCUS BIOSCIENCES, INC., priority 2022, published 2025)", "conditions": "in vivo", "data": [{"substance": "zimberelimab: antagonistic PD-1 antibody, immune checkpoint inhibitor", "values": [{"measurement": "Any SAEs Leading to DC", "result": "8 (21) n (%)"}, {"measurement": "Any SAEs Leading to Study Drug Discontinuation", "result": "9 (18.0) n (%)"}, {"measurement": "Any SAEs, events", "result": 30, "unit": "n"}, {"measurement": "Any SAEs, subjects", "result": "18 (47.4) n (%)"}, {"measurement": "Any TEAEs of Grade 3 or Higher, events", "result": 41, "unit": "n"}, {"measurement": "Any TEAEs of Grade 3 or Higher, subjects", "result": "20 (52.6) n (%)"}, {"measurement": "Any TEAEs that are immune-related", "result": "24 (48.0) n (%)"}, {"measurement": "Any TEAEs, events", "result": 271, "unit": "n"}, {"measurement": "Any TEAEs, subjects", "result": "36 (94.7) n (%)"}, {"measurement": "Grade ≥3 TEAE Acute respiratory failure, events", "result": 0, "unit": "n"}, {"measurement": "Grade ≥3 TEAE Acute respiratory failure, subjects", "result": "0 n (%)"}, {"measurement": "Grade ≥3 TEAE Anaemia, events", "result": 2, "unit": "n"}, {"measurement": "Grade ≥3 TEAE Anaemia, subjects", "result": "2 (5.3) n (%)"}, {"measurement": "Grade ≥3 TEAE Asthenia, events", "result": 2, "unit": "n"}, {"measurement": "Grade ≥3 TEAE Asthenia, subjects", "result": "2 (5.3) n (%)"}, {"measurement": "Grade ≥3 TEAE Chronic obstructive pulmonary disease, events", "result": 0, "unit": "n"}, {"measurement": "Grade ≥3 TEAE Chronic obstructive pulmonary disease, subjects", "result": "0 n (%)"}, {"measurement": "Grade ≥3 TEAE Dyspnoea, events", "result": 3, "unit": "n"}, {"measurement": "Grade ≥3 TEAE Dyspnoea, subjects", "result": "3 (7.9) n (%)"}, {"measurement": "Grade ≥3 TEAE Fatigue, events", "result": 0, "unit": "n"}, {"measurement": "Grade ≥3 TEAE Fatigue, subjects", "result": "0 n (%)"}, {"measurement": "Grade ≥3 TEAE Hyperglycaemia, events", "result": 2, "unit": "n"}, {"measurement": "Grade ≥3 TEAE Hyperglycaemia, subjects", "result": "2 (5.3) n (%)"}, {"measurement": "Grade ≥3 TEAE Hyperkalaemia, events", "result": 0, "unit": "n"}, {"measurement": "Grade ≥3 TEAE Hyperkalaemia, subjects", "result": "0 n (%)"}, {"measurement": "Grade ≥3 TEAE Hypertension, events", "result": 0, "unit": "n"}, {"measurement": "Grade ≥3 TEAE Hypertension, subjects", "result": "0 n (%)"}, {"measurement": "Grade ≥3 TEAE Hypokalaemia, events", "result": 3, "unit": "n"}, {"measurement": "Grade ≥3 TEAE Hypokalaemia, subjects", "result": "3 (7.9) n (%)"}, {"measurement": "Grade ≥3 TEAE Hypoxia, events", "result": 1, "unit": "n"}, {"measurement": "Grade ≥3 TEAE Hypoxia, subjects", "result": "1 (2.6) n (%)"}, {"measurement": "Grade ≥3 TEAE Myocardial infarction, events", "result": 1, "unit": "n"}, {"measurement": "Grade ≥3 TEAE Myocardial infarction, subjects", "result": "1 (2.6) n (%)"}, {"measurement": "Grade ≥3 TEAE Pericardial effusion, events", "result": 1, "unit": "n"}, {"measurement": "Grade ≥3 TEAE Pericardial effusion, subjects", "result": "1 (2.6) n (%)"}, {"measurement": "Grade ≥3 TEAE Pleural effusion, events", "result": 2, "unit": "n"}, {"measurement": "Grade ≥3 TEAE Pleural effusion, subjects", "result": "2 (5.3) n (%)"}, {"measurement": "Grade ≥3 TEAE Pneumonia, events", "result": 2, "unit": "n"}, {"measurement": "Grade ≥3 TEAE Pneumonia, subjects", "result": "2 (5.3) n (%)"}, {"measurement": "Grade ≥3 TEAE Pneumonitis, events", "result": 2, "unit": "n"}, {"measurement": "Grade ≥3 TEAE Pneumonitis, subjects", "result": "2 (5.3) n (%)"}, {"measurement": "Grade ≥3 TEAE Pulmonary embolism, events", "result": 3, "unit": "n"}, {"measurement": "Grade ≥3 TEAE Pulmonary embolism, subjects", "result": "3 (7.9) n (%)"}, {"measurement": "Grade ≥3 TEAE Respiratory failure, events", "result": 0, "unit": "n"}, {"measurement": "Grade ≥3 TEAE Respiratory failure, subjects", "result": "0 n (%)"}, {"measurement": "Grade ≥3 TEAE Sepsis, events", "result": 0, "unit": "n"}, {"measurement": "Grade ≥3 TEAE Sepsis, subjects", "result": "0 n (%)"}, {"measurement": "Grade ≥3 TEAE Septic shock, events", "result": 1, "unit": "n"}, {"measurement": "Grade ≥3 TEAE Septic shock, subjects", "result": "1 (2.6) n (%)"}, {"measurement": "Grade ≥3 TEAE Spinal compression fracture, events", "result": 2, "unit": "n"}, {"measurement": "Grade ≥3 TEAE Spinal compression fracture, subjects", "result": "2 (5.3) n (%)"}, {"measurement": "Immune-related TEAE Acute respiratory failure", "result": "0 n (%)"}, {"measurement": "Immune-related TEAE Bronchospasm", "result": "0 n (%)"}, {"measurement": "Immune-related TEAE Bulbar palsy", "result": "0 n (%)"}, {"measurement": "Immune-related TEAE Colitis", "result": "0 n (%)"}, {"measurement": "Immune-related TEAE Contrast media reaction", "result": "1 (2.0) n (%)"}, {"measurement": "Immune-related TEAE Diabetes mellitus", "result": "1 (2.0) n (%)"}, {"measurement": "Immune-related TEAE Diabetic ketoacidosis", "result": "1 (2.0) n (%)"}, {"measurement": "Immune-related TEAE Drug eruption", "result": "1 (2.0) n (%)"}, {"measurement": "Immune-related TEAE Erythema", "result": "1 (2.0) n (%)"}, {"measurement": "Immune-related TEAE Eyelid oedema", "result": "0 n (%)"}, {"measurement": "Immune-related TEAE Flushing", "result": "1 (2.0) n (%)"}, {"measurement": "Immune-related TEAE Generalised oedema", "result": "0 n (%)"}, {"measurement": "Immune-related TEAE Hyperthyroidism", "result": "1 (2.0) n (%)"}, {"measurement": "Immune-related TEAE Hypothyroidism", "result": "4 (8.0) n (%)"}, {"measurement": "Immune-related TEAE Idiopathic urticaria", "result": "0 n (%)"}, {"measurement": "Immune-related TEAE Immune-mediated enterocolitis", "result": "1 (2.0) n (%)"}, {"measurement": "Immune-related TEAE Infusion related reaction", "result": "0 n (%)"}, {"measurement": "Immune-related TEAE Lichen planus", "result": "0 n (%)"}, {"measurement": "Immune-related TEAE Mouth ulceration", "result": "0 n (%)"}, {"measurement": "Immune-related TEAE Myocarditis", "result": "0 n (%)"}, {"measurement": "Immune-related TEAE Myositis", "result": "1 (2.0) n (%)"}, {"measurement": "Immune-related TEAE Pancreatitis", "result": "0 n (%)"}, {"measurement": "Immune-related TEAE Pneumonitis", "result": "7 (14.0) n (%)"}, {"measurement": "Immune-related TEAE Pneumonitis Grade ≥3", "result": "3 (6) n (%)"}, {"measurement": "Immune-related TEAE Pruritus", "result": "8 (16.0) n (%)"}, {"measurement": "Immune-related TEAE Rash", "result": "6 (12.0) n (%)"}, {"measurement": "Immune-related TEAE Rash maculo-papular", "result": "1 (2.0) n (%)"}, {"measurement": "Immune-related TEAE Rash pustular", "result": "0) n (%)"}, {"measurement": "Immune-related TEAE Respiratory failure", "result": "1 (2.0) n (%)"}, {"measurement": "Immune-related TEAE Rheumatoid arthritis", "result": "0 n (%)"}, {"measurement": "Immune-related TEAE Rhinitis allergic", "result": "0 n (%)"}, {"measurement": "Immune-related TEAE Seasonal allergy", "result": "0 n (%)"}, {"measurement": "Immune-related TEAE Stomatitis", "result": "0 n (%)"}, {"measurement": "Immune-related TEAE Thyroiditis", "result": "0 n (%)"}, {"measurement": "Immune-related TEAE Tracheal obstruction", "result": "0 n (%)"}, {"measurement": "Immune-related TEAE Type I diabetes mellitus", "result": "1 (2.0) n (%)"}, {"measurement": "Immune-related TEAE Urticaria", "result": "0 n (%)"}, {"measurement": "Immune-related TEAE Wheezing", "result": "0 n (%)"}, {"measurement": "Infusion-related reactions", "result": "2 (4) n (%)"}, {"measurement": "Rash", "result": "6 (12) n (%)"}, {"measurement": "SAE Anaemia, events", "result": 0, "unit": "n"}, {"measurement": "SAE Anaemia, subjects", "result": "0 n (%)"}, {"measurement": "SAE Asthenia, events", "result": 2, "unit": "n"}, {"measurement": "SAE Asthenia, subjects", "result": "2 (5.3) n (%)"}, {"measurement": "SAE Chronic obstructive pulmonary disease, events", "result": 0, "unit": "n"}, {"measurement": "SAE Chronic obstructive pulmonary disease, subjects", "result": "0 n (%)"}, {"measurement": "SAE Myocardial infarction, events", "result": 1, "unit": "n"}, {"measurement": "SAE Myocardial infarction, subjects", "result": "1 (2.6) n (%)"}, {"measurement": "SAE Pleural effusion, events", "result": 3, "unit": "n"}, {"measurement": "SAE Pleural effusion, subjects", "result": "2 (5.3) n (%)"}, {"measurement": "SAE Pneumonia, events", "result": 2, "unit": "n"}, {"measurement": "SAE Pneumonia, subjects", "result": "2 (5.3) n (%)"}, {"measurement": "SAE Pneumonitis, events", "result": 1, "unit": "n"}, {"measurement": "SAE Pneumonitis, subjects", "result": "1 (2.6) n (%)"}, {"measurement": "SAE Pulmonary embolism, events", "result": 3, "unit": "n"}, {"measurement": "SAE Pulmonary embolism, subjects", "result": "3 (7.9) n (%)"}, {"measurement": "SAE Septic shock, events", "result": 1, "unit": "n"}, {"measurement": "SAE Septic shock, subjects", "result": "1 (2.6) n (%)"}, {"measurement": "SAE Spinal compression fracture, events", "result": 2, "unit": "n"}, {"measurement": "SAE Spinal compression fracture, subjects", "result": "2 (5.3) n (%)"}, {"measurement": "TEAE Constipation, events", "result": 6, "unit": "n"}, {"measurement": "TEAE Constipation, subjects", "result": "4 (10.5) n (%)"}, {"measurement": "TEAE Decreased appetite, events", "result": 6, "unit": "n"}, {"measurement": "TEAE Decreased appetite, subjects", "result": "6 (15.8) n (%)"}, {"measurement": "TEAE Diarrhoea, events", "result": 7, "unit": "n"}, {"measurement": "TEAE Diarrhoea, subjects", "result": "6 (15.8) n (%)"}, {"measurement": "TEAE Dyspnoea, events", "result": 9, "unit": "n"}, {"measurement": "TEAE Dyspnoea, subjects", "result": "7 (18.4) n (%)"}, {"measurement": "TEAE Fatiguc, events", "result": 11, "unit": "n"}, {"measurement": "TEAE Fatiguc, subjects", "result": "11 (28.9) n (%)"}, {"measurement": "TEAE Nausea, events", "result": 7, "unit": "n"}, {"measurement": "TEAE Nausea, subjects", "result": "7 (18.4) n (%)"}, {"measurement": "TEAE Pneumonia, events", "result": 2, "unit": "n"}, {"measurement": "TEAE Pneumonia, subjects", "result": "2 (5.3) n (%)"}, {"measurement": "TEAE Pneumonitis, events", "result": 7, "unit": "n"}, {"measurement": "TEAE Pneumonitis, subjects", "result": "6 (15.8) n (%)"}, {"measurement": "TEAE Pruritus, events", "result": 6, "unit": "n"}, {"measurement": "TEAE Pruritus, subjects", "result": "6 (15.8) n (%)"}, {"measurement": "TEAE Pyrexia, events", "result": 4, "unit": "n"}, {"measurement": "TEAE Pyrexia, subjects", "result": "4 (10.5) n (%)"}, {"measurement": "TEAE Rash, events", "result": 8, "unit": "n"}, {"measurement": "TEAE Rash, subjects", "result": "3 (7.9) n (%)"}, {"measurement": "TEAE Vomiting, events", "result": 3, "unit": "n"}, {"measurement": "TEAE Vomiting, subjects", "result": "3 (7.9) n (%)"}, {"measurement": "TEAEs leading to study drug mod. int.", "result": "12 (24.0) n (%)"}, {"measurement": "TEAEs leading to study drug mod. int., related to study treatment", "result": "7 (14.0) n (%)"}, {"measurement": "TEAEs leading to zim discon., related to zim", "result": "9 (18.0) n (%)"}, {"measurement": "TEAEs leading to zim mod./int., related to zim", "result": "7 (14.0) n (%)"}, {"measurement": "grade 3 treatment-emergent adverse events", "result": 58, "unit": "%"}, {"measurement": "tolerability", "result": "well tolerated"}]}]}
